Entries after “also recorded” stand apart in the source; their conditions may differ.
Legend:
[1] = test system: iPSC-derived pancreatic progenitors; experiment: Acinar differentiation of iPSC-derived pancreatic progenitors (ICC); format: cell-based, human; settings: for PDX1 levels / expression / amylase positive clusters / cells: Notch modulation in the presence of FGF10
Description: Using the same DMEM base media, cells were then treated daily for seven days with XXI, FGF10, Noggin, Nicotinamide, and Murine Wnt3a (Peprotech). By the end of this stage, cell clustering could be seen.
Planar fixed samples were fixed with 4% paraformaldehyde in PBS for 15 minutes. Following this, they were washed three times with PBS and then incubated with 10% donkey serum with 0.1% Triton-X for one hour. Primary antibodies diluted in the 10% blocking serum were added, and the samples were let incubate for three hours at room temperature or overnight at 4 C. From here, the samples were washed three times for five minutes each with 0.1% TWEEN in PBS. Secondary antibodies diluted at 1:1000 in the blocking serum were added and the samples were allowed to sit one hour at room temperature. Three rounds of five-minute washes with PBS were performed before Hoechst was added at a 1:2000 dilution in PBS. After a 15-minute room temperature incubation, samples were washed with PBS three times before being imaged.
We performed an experiment comparing the use of notch inhibitor XXI vs notch activator sDLL-1 with FGF10. […] We added Wnt3a as it is important.

[2] = test system: iPSC-derived pancreatic progenitors; experiment: iPan Ductal maturation/specification (qPCR, ICC); format: cell-based, human
Description: After 1 day of Phase III, on Day 7, cells were single cell dissociated with TrypLE for 3-6 minutes, washed and seeded at 33% confluency (9.5×10^4 cells/cm^2) in Phase III media plus 10 μM Rho kinase Inhibitor. On Day 8 onwards, cells were treated with Phase IV media—addition of FGF10 (25 ng/ml), EGF (50 ng/ml), and sDLL-1 (25 ng/ml, Peprotech). The base media for phase III and IV consists of DMEM, lx Pen-Strep, 1×B27 without Vitamin A (Thermo Fisher), and Vitamin C (250 μM).
For organoids, Cell Recovery Solution (Corning) was added for an hour in 4° to remove Matrigel then washed 3× with PBS. Total RNA was isolated with RLT buffer (Qiagen), syringed with 23 G needle, then extracted with RNeasy Micro Kit (Qiagen) according to the manufacturer's instructions. The concentration and the purity of RNA was determined with NanoDrop. 1-2 μg RNA was reverse transcribed to cDNA High-Capacity cDNA Reverse Transcription kit (Thermo Fisher). Real-time qPCR was performed (technical replicates, n=3-4) using SYBR Master Mix (Applied Biosystems, #4472952) and specific primer sequences to each gene (Table 1), on a CFX384 Real Time system (Bio-Rad). Human RPL13 was used as the reference gene and relative expression was determined using 2-ΔΔ Ct method.
Planar cultures were fixed with 4% PFA for 15 minutes, washed with PBS and then blocked overnight at 4° C. with 10% donkey serum containing 0.1% Triton-X100. After overnight incubation with primary antibodies at 4° C., cells were washed with 0.1% TWEEN-20 3× for 5 min, incubated with secondary antibodies for an hour at RT, and finally incubated with Hoechst 33342 (1:2000 dilution) for 15 minutes for nuclear counterstaining.
To optimize the ductal maturation phase, the effect of dissociating pancreatic progenitors on Day 7 and adding growth factor EGF and the Notch activating ligand sDLL-1 to the cultures was explored. FGF10 was also added at this time to increase proliferation of pancreatic cells. Based on our results, we incorporated a dissociation step prior to initiating EGF and Notch signaling in our defined iPan Ductal protocol (FIG. 2A). Dissociation of pancreatic progenitor cells inhibited acinar differentiation by Day 21 (FIG. 2B).

[3] = sDLL1 for 2 weeks started late, at pancreatic endoderm stage, Day 21

## C[C@H](NC(=O)Cc1cc(F)cc(F)c1)C(=O)N[C@H]1N=C(c2ccccc2)c2ccccc2N(C)C1=O [XXI]
[1]
  PDX1 levels / expression: reduces PDX1 expression; also recorded: lowest PDX1 levels
  amylase positive clusters / cells: increases islands of amylase positive cells; also recorded: most increase in amylase positive clusters

## EGF: growth factor EGF
[2]; dissociated cells exposed to EGF
  survival and confluency (immunocytochemistry): increased survival and confluency
[2]; dissociated cells with exposure to EGF
  levels of ductal markers KRT19, HNF1B, SOX9, FOXA2: increased levels of ductal KRT19, HNF1B, SOX9, and FOXA2 markers

B1: sDLL1: Notch-activating ligand; extracellular signaling domain of DLL1 (protein, UniProt O00548 18-545, looked up)
extracellular domain: QVWSSGVFELKLQEFVNKKGLLGNRNCCRGGAGPPPCACRTFFRVCLKHYQASVSPEPPCTYGSAVTPVLGVDSFSLPDGGGADSAFSNPIRFPFGFTWPGTFSLIIEALHTDSPDDLATENPERLISRLATQRHLTVGEEWSQDLHSSGRTDLKYSYRFVCDEHYYGEGCSVFCRPRDDAFGHFTCGERGEKVCNPGWKGPYCTEPICLPGCDEQHGFCDKPGECKCRVGWQGRYCDECIRYPGCLHGTCQQPWQCNCQEGWGGLFCNQDLNYCTHHKPCKNGATCTNTGQGSYTCSCRPGYTGATCELGIDECDPSPCKNGGSCTDLENSYSCTCPPGFYGKICELSAMTCADGPCFNGGRCSDSPDGGYSCRCPVGYSGFNCEKKIDYCSSSPCSNGAKCVDLGDAYLCRCQAGFSGRHCDDNVDDCASSPCANGGTCRDGVNDFSCTCPPGYTGRNCSAPVSRCEHAPCHNGATCHERGHRYVCECARGYGGPNCQFLLPELPPGPAVVDLTEKLEGQGGPFPW
modifications: extracellular domain
notes: extracellular signaling domain of DLL1
[1]
  PDX1 levels / expression: does not increase the Amylase positive clusters or decrease PDX1 levels
  amylase positive clusters / cells: does not increase the Amylase positive clusters
[2]; [3]
  C-Peptide+ endocrine cells: C-Peptide was elevated; also recorded: higher amount of C-Peptide^+ endocrine cells
  ductal markers: no increase in ductal markers

B2: FGF10: growth factor added to increase proliferation of pancreatic cells; activates PDX1 (protein, UniProt O15520 38-208, looked up)
Fibroblast growth factor 10: QALGQDMVSPEATNSSSSSFSSPSSAGRHVRSYNHLQGDVRWRKLFSFTKYFLKIEKNGKVSGTKKENCPYSILEITSVEIGVVAVKAINSNYYLAMNKKGKLYGSKEFNNDCKLKERIEENGYNTYASFNWQHNGRQMYVALNGKGAPRRGQKTRRKNTSAHFLPMVVHS
[1]; FGF10 tested at 0, 2.5, 20 and 50 ng/mL, result for 20 ng
  CTRC and amylase positive cell expression: most CTRC and amylase positive cell expression

Reference: patent publication US20240084262A1, “METHODS FOR DIFFERENTIATION OF PANCREATIC EXOCRINE CELLS FROM HUMAN INDUCED PLURIPOTENT STEM CELLS” (CEDARS-SINAI MEDICAL CENTER, priority 2020, published 2024)
